Measured values as given in article PMC8099429, “Membrane binding controls ordered self-assembly of animal septins” (eLife, 2021).
Blank lines part the entries; values can stand above or below the molecule they belong to.

Tests used:
[1] = biological target: Drosophila melanogaster septin hexamers composed of His6-DSep1, DSep2, Pnut-StrepII (Drosophila melanogaster) (UniProt P42207); assay: atomic force microscopy on supported lipid bilayers; 12, 24 or 60 nM hexamers for 15 min at 19°C on silica-supported bilayers of 80% PC and 20% PS in polymerization buffer; mostly fixed with 1% glutaraldehyde, also unfixed
[2] = biological target: Drosophila melanogaster septin hexamers composed of His6-DSep1, mEGFP-DSep2, and Pnut-StrepII (Drosophila melanogaster) (UniProt P42207); assay: TIRF microscopy of bundles formed in solution; mEGFP-tagged hexamers diluted from 300 mM KCl into polymerization buffer with 50 mM KCl (20 mM imidazole pH 7.4), 100, 200, 500 nM; crowded onto a neutral PC bilayer with 0.1 wt-% methylcellulose; 20°C
[3] = biological target: the molecule itself; assay: scanning transmission electron microscopy (STEM) with mass-per-length mapping; septins preassembled for 1 hr at 20°C in solution at 50-500 nM, no membrane; TMV rods as mass standard

threshold concentration for polymerization on negatively charged membranes [1]: < 12 nM
Molecule: Drosophila melanogaster septin hexamers composed of His6-DSep1, DSep2, Pnut-StrepII (from UniProt P42207 1-361; P54359 1-419; P40797 1-539) (complex)

threshold concentration for polymerization in solution [2]: 200 nM
Molecule: Drosophila melanogaster septin hexamers composed of His6-DSep1, mEGFP-DSep2, and Pnut-StrepII (from UniProt P42207 1-361; P54359 1-419; P40797 1-539) (complex)

B1: Budding yeast septin octamers composed of Cdc3, Cdc10, Cdc11, and His6-Cdc12 (complex, budding yeast (S. cerevisiae))
chain 1: MSLKEEQVSIKQDPEQEERQHDQFNDVQIKQESQDHDGVDSQYTNGTQNDDSERFEAAESDVKVEPGLGMGITSSQSEKGQVLPDQPEIKFIRRQINGYVGFANLPKQWHRRSIKNGFSFNLLCVGPDGIGKTTLMKTLFNNDDIEANLVKDYEEELANDQEEEEGQGEGHENQSQEQRHKVKIKSYESVIEENGVKLNLNVIDTEGFGDFLNNDQKSWDPIIKEIDSRFDQYLDAENKINRHSINDKRIHACLYFIEPTGHYLKPLDLKFMQSVYEKCNLIPVIAKSDILTDEEILSFKKTIMNQLIQSNIELFKPPIYSNDDAENSHLSERLFSSLPYAVIGSNDIVENYSGNQVRGRSYPWGVIEVDNDNHSDFNLLKNLLIKQFMEELKERTSKILYENYRSSKLAKLGIKQDNSVFKEFDPISKQQEEKTLHEAKLAKLEIEMKTVFQQKVSEKEKKLQKSETELFARHKEMKEKLTKQLKALEDKKKQLELSINSASPNVNHSPVPTKKKGFLR
chain 2: MDPLSSVQPASYVGFDTITNQIEHRLLKKGFQFNIMVVGQSGLGKSTLINTLFASHLIDSATGDDISALPVTKTTEMKISTHTLVEDRVRLNINVIDTPGFGDFIDNSKAWEPIVKYIKEQHSQYLRKELTAQRERFITDTRVHAILYFLQPNGKELSRLDVEALKRLTEIANVIPVIGKSDTLTLDERTEFRELIQNEFEKYNFKIYPYDSEELTDEELELNRSVRSIIPFAVVGSENEIEINGETFRGRKTRWSAINVEDINQCDFVYLREFLIRTHLQDLIETTSYIHYEGFRARQLIALKENANSRSSAHMSSNAIQR
chain 3: MSGIIDASSALRKRKHLKRGITFTVMIVGQSGSGRSTFINTLCGQQVVDTSTTILLPTDTSTEIDLQLREETVELEDDEGVKIQLNIIDTPGFGDSLDNSPSFEIISDYIRHQYDEILLEESRVRRNPRFKDGRVHCCLYLINPTGHGLKEIDVEFIRQLGSLVNIIPVISKSDSLTRDELKLNKKLIMEDIDRWNLPIYNFPFDEDEISDEDYETNMYLRTLLPFAIIGSNEVYEMGGDVGTIRGRKYPWGILDVEDSSISDFVILRNALLISHLHDLKNYTHEILYERYRTEALSGESVAAESIRPNLTKLNGSSSSSTTTRRNTNPFKQSNNINNDVLNPASDMHGQSTGENNETYMTREEQIRLEEERLKAFEERVQQELLLKRQELLQREKELREIEARLEKEAKIKQEE
chain 4: MSAATATAAPVPPPVGISNLPNQRYKIVNEEGGTFTVMLCGESGLGKTTFINTLFQTVLKRADGQQHRQEPIRKTVEIDITRALLEEKHFELRVNVIDTPGFGDNVNNNKAWQPLVDFIDDQHDSYMRQEQQPYRTKKFDLRVHAVLYFIRPTGHGLKPIDIETMKRLSTRANLIPVIAKADTLTAQELQQFKSRIRQVIEAQEIRIFTPPLDADSKEDAKSGSNPDSAAVEHARQLIEAMPFAIVGSEKKFDNGQGTQVVARKYPWGLVEIENDSHCDFRKLRALLLRTYLLDLISTTQEMHYETYRRLRLEGHENTGEGNEDFTLPAIAPARKLSHNPRYKEEENALKKYFTDQVKAEEQRFRQWEQNIVNERIRLNGDLEEIQGKVKKLEEQVKSLQVKKSHLK
notes: Cdc3, budding yeast septin; Cdc10, budding yeast septin; Cdc11, budding yeast septin; Cdc12, budding yeast septin; Two copies of each chain follow from the word octamer with four named subunits; also called yeast septins; budding yeast septins; source: purified as described (Bertin et al., 2008); copies: 2 + 2 + 2 + 2
binding result [3]: binds
